Data as given in patent US20180171001A1.
Residue numbers refer to the chain shown, from its start.

B1: γ44κ11 (antibody, V domains shown)
VH: QIHLVQSGTEVKKPGSSVTVSCKAYEVNTFGLYAVNWVRQAPGQSLEYIGQIWRWKSSASHHFRGRVLISAVDLTGSSPPISSLEIKNVTSDDTAVYFCTTTSTHDKWSGLHHDGVMAFSSWGQGTLISVSA
VL: DIQMTQSPSTLSASVGGTVRISCRASQSITGGWLAWYHQRPGKAPRLLIYRGSRLLGGVPSRFSGSAAGTDFTLTIANLQAEDFGTFYCQQYDTYPGTFGQGTKVEVKR
B2: γ22κ18 (antibody, V domains shown)
VH: B1 VH with E26G, S77P, V89L, H105Y
VL: B1 VL with G17D, T70A
B3: γ4κ18 (antibody, V domains shown)
VH: B1 VH with E26G, L68I, S83P, V89L, H105S, K107R
VL: B1 VL with G17D, T70A
B4: γ23κ18 (antibody, V domains shown)
VH: B1 VH with E26G, L68I, V89L, H105S, K107Y
VL: B1 VL with G17D, T70A
B5: γ59κ11 (antibody, V domains shown)
VH: B1 VH with E26G, S45G, H105Y, K107E, G110D
VL: B1 VL
B6: γ59κ18 (antibody, V domains shown)
VH: B1 VH with E26G, S45G, H105Y, K107E, G110D
VL: B1 VL with G17D, T70A
B7: γ52κ11 (antibody, V domains shown)
VH: B1 VH with E26G, V89L, H105Y, K107R
VL: B1 VL
B8: γ46κ11 (antibody, V domains shown)
VH: B1 VH with E26G, S45G, H105Y, M117V
VL: B1 VL
B9: γ20κ18 (antibody, V domains shown)
VH: B1 VH with T19A, E26G, H62D, L68I, V89L, T101A, H105P, K107Y
VL: B1 VL with G17D, T70A
B10: γ52κ18 (antibody, V domains shown)
VH: B1 VH with E26G, V89L, H105Y, K107R
VL: B1 VL with G17D, T70A
B11: γ3κ18 (antibody, V domains shown)
VH: QIHLVQSGTEVKKPGSSVTVSCKAYGVNTFGLYAVSWVRQAPGQRLEYIGQIRRWKSSASHHFRGRVTVSAVDPTGSSPPISSLEIRDLTTDDTAVYFCTTTSTSDYWSGLHNERGTAFSSWGQGTLISVSA
VL: B1 VL with G17D, T70A
B12: γ46κ18 (antibody, V domains shown)
VH: B1 VH with E26G, S45G, H105Y, M117V
VL: B1 VL with G17D, T70A

Biological target: Env of HIV-1 strain 3415.v1.c1 (HIV-1)
Test: cell-based or functional assay

Binder | neutralization IC50 [µg/mL]
B1 | > 15
B2 | > 15
B3 | > 15
B4 | > 15
B5 | > 15
B6 | > 15
B7 | > 15
B8 | > 15
B9 | > 15
B10 | > 15
B11 | > 15
B12 | > 15

Biological target: Env of HIV-1 strain R1166.c1 (HIV-1)
Test: cell-based or functional assay

Binder | neutralization IC50 [µg/mL]
B1 | > 15
B2 | 7.31
B3 | > 15
B4 | 0.708
B5 | 12.6
B6 | 11.7
B7 | 1.16
B8 | 3.39
B9 | 20
B10 | 1.35
B11 | 0.578
B12 | 4.1

Biological target: Env of HIV-1 strain 3016.v5.c45 (HIV-1)
Test: cell-based or functional assay

Binder | neutralization IC50 [µg/mL]
B1 | > 15
B2 | 13.3
B3 | > 15
B4 | 0.047
B5 | > 15
B6 | > 15
B7 | 0.161
B8 | 1.93
B9 | > 15
B10 | 0.129
B11 | 0.057
B12 | 2.99

Biological target: Env of HIV-1 strain Du172.17 (HIV-1)
Test: cell-based or functional assay

Binder | neutralization IC50 [µg/mL]
B1 | > 15
B2 | > 15
B3 | > 15
B4 | 2.95
B5 | > 15
B6 | > 15
B7 | > 15
B8 | > 15
B9 | > 15
B10 | > 15
B11 | 11.5
B12 | > 15

Biological target: Env of HIV-1 strain 251-18 (HIV-1)
Test: cell-based or functional assay

Binder | neutralization IC50 [µg/mL]
B1 | > 15
B2 | > 15
B3 | > 15
B4 | 1.58
B5 | > 15
B6 | 25
B7 | 0.647
B8 | > 15
B9 | > 15
B10 | 0.116
B11 | > 15
B12 | > 15

Biological target: Env of HIV-1 strain 231965.c1 (HIV-1)
Test: cell-based or functional assay

Binder | neutralization IC50 [µg/mL]
B1 | > 15
B2 | 26
B3 | > 15
B4 | 0.128
B5 | > 15
B6 | > 15
B7 | 0.298
B8 | 2.95
B9 | > 15
B10 | 0.284
B11 | 0.163
B12 | 4.16

Biological target: Env of HIV-1 strain X1254_c3 (HIV-1)
Test: cell-based or functional assay

Binder | neutralization IC50 [µg/mL]
B1 | > 15
B2 | 1.58
B3 | 16.2
B4 | 0.545
B5 | 4.67
B6 | 4.07
B7 | 2.42
B8 | 5.68
B9 | 5.22
B10 | 1.57
B11 | 0.616
B12 | 4.2

Biological target: Env of HIV-1 strain H086.8 (HIV-1)
Test: cell-based or functional assay

Binder | neutralization IC50 [µg/mL]
B1 | > 15
B2 | > 15
B3 | > 15
B4 | > 15
B5 | > 15
B6 | > 15
B7 | 1.64
B8 | > 15
B9 | > 15
B10 | 0.464
B11 | 0.209
B12 | > 15

Biological target: Env of HIV-1 strain ZM53M.PB12 (HIV-1)
Test: cell-based or functional assay

Binder | neutralization IC50 [µg/mL]
B1 | > 15
B2 | > 15
B3 | > 15
B4 | > 15
B5 | > 15
B6 | > 15
B7 | > 15
B8 | > 15
B9 | > 15
B10 | > 15
B11 | > 15
B12 | > 15

Biological target: Env of HIV-1 strain 3365.v2.c20 (HIV-1)
Test: cell-based or functional assay

Binder | neutralization IC50 [µg/mL]
B1 | > 15
B2 | > 15
B3 | > 15
B4 | > 15
B5 | > 15
B6 | > 15
B7 | > 15
B8 | > 15
B9 | > 15
B10 | > 15
B11 | > 15
B12 | > 15

Biological target: Env of HIV-1 strain ZM109F.PB4 (HIV-1)
Test: cell-based or functional assay

Binder | neutralization IC50 [µg/mL]
B1 | > 15
B2 | > 15
B3 | > 15
B4 | > 15
B5 | > 15
B6 | > 15
B7 | > 15
B8 | > 15
B9 | > 15
B10 | > 15
B11 | > 15
B12 | > 15

Biological target: Env of HIV-1 strain PVO.4 (HIV-1)
Test: cell-based or functional assay

Binder | neutralization IC50 [µg/mL]
B1 | > 15
B2 | > 15
B3 | > 15
B4 | 0.047
B5 | > 15
B6 | > 15
B7 | 0.103
B8 | 2.92
B9 | > 15
B10 | 0.081
B11 | 0.028
B12 | 2.1

Biological target: Env of MuLV
Test: cell-based or functional assay

Binder | neutralization IC50 [µg/mL]
B1 | > 19
B2 | > 30
B3 | > 30
B4 | > 30
B5 | > 30
B6 | > 15
B7 | > 30
B8 | > 30
B9 | > 30
B10 | > 15
B11 | > 30
B12 | > 15

Biological target: Env of HIV-1 strain YU2.DG (HIV-1)
Test: cell-based or functional assay

Binder | neutralization IC50 [µg/mL]
B1 | > 15
B2 | 8.23
B3 | > 15
B4 | 0.117
B5 | 6.91
B6 | 7.71
B7 | 0.298
B8 | 2.1
B9 | > 15
B10 | 0.265
B11 | 0.07
B12 | 2.36

Biological target: Env of HIV-1 strain 250-4 (HIV-1)
Test: cell-based or functional assay

Binder | neutralization IC50 [µg/mL]
B1 | > 15
B2 | > 15
B3 | > 15
B4 | > 15
B5 | > 15
B6 | > 15
B7 | > 15
B8 | > 15
B9 | > 15
B10 | > 15
B11 | > 15
B12 | > 15

Biological target: Env of HIV-1 strain REJO4541.67 (HIV-1)
Test: cell-based or functional assay

Binder | neutralization IC50 [µg/mL]
B1 | > 15
B2 | > 15
B3 | > 15
B4 | 0.061
B5 | 1.57
B6 | 1.23
B7 | 3.47
B8 | > 15
B9 | > 15
B10 | 2.13
B11 | 0.049
B12 | > 15
